# Results: doi:10.1101/2025.08.05.25330579
# Numbering of substitutions follows the chain as printed.
# T1: RBM10 RRM2 WT (UniProt P98175 300-384)
# T1 sequence: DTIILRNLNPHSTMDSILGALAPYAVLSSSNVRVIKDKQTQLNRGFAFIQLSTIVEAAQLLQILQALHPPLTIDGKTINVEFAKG
# T2: RBM10 RRM2 R332C (UniProt P98175 300-384, R332C)
# T2 sequence: T1 sequence with R33C
# B1: NUMB exon 12-derived 12mer RNA (ssRNA)
# RNA: UUGUCUGCUCCC
# Columns and labels:
# [1] = molecular target: T1, RBM10 RRM2 WT; assay: ITC
# [2] = molecular target: T2, RBM10 RRM2 R332C; assay: ITC and NMR
binder,measurement,setting,value
B1,binding result,[1],binds
same,binding signal,[2],> 20 fold reduced affinity vs WT
